From US20240400708A1
Numbering of substitutions follows the chain as printed. Names may count otherwise.

B1: feline IgG1a mutant ID No. 279: S252R, S434Y (antibody, part only; not given: Variable domains, not shown: another chain or arm of the molecule)
constant: ASTTAPSVFPLAPSCGTTSGATVALACLVLGYFPEPVTVSWNSGALTSGVHTFPAVLQASGLYSLSSMVTVPSSRWLSDTFTCNVAHPPSNTKVDKTVRKTDHPPGPKPCDCPKCPPPEMLGGPSIFIFPPKPKDTLRISRTPEVTCLVVDLGPDDSDVQITWFVDNTQVYTAKTSPREEQFNSTYRVVSVLPILHQDWLKGKEFKCKVNSKSLPSPIERTISKAKGQPHEPQVYVLPPAQEELSRNKVSVTCLIKSFHPPDIAVEWEITGQPEPENNYRTTPPQLDSDGTYFVYSKLSVDRSHWQRGNTYTCSVSHEALHYHHTQKSLTQSPGK
B2: feline IgG1a mutant ID No. 280: S252R, S434Y, Q311W (antibody, part only; not given: Variable domains, not shown: another chain or arm of the molecule)
constant: B1 constant with Q197W
B3: feline IgG1a mutant ID No. 281: S252Y, D312P, L314K, S434Y (antibody, part only; not given: Variable domains, not shown: another chain or arm of the molecule)
constant: B1 constant with R138Y, D198P, L200K
B4: feline IgG1a mutant ID No. 282: S252Y, Q311W, D312P, L314K (antibody, part only; not given: Variable domains, not shown: another chain or arm of the molecule)
constant: B1 constant with R138Y, Q197W, D198P, L200K, Y322S
B5: feline IgG1a mutant ID No. 283: S252Y, Q311W, D312P, L314K, S434Y (antibody, part only; not given: Variable domains, not shown: another chain or arm of the molecule)
constant: B1 constant with R138Y, Q197W, D198P, L200K
B6: feline IgG1a mutant ID No. 285: S252Y, Q311W, L314K, S434Y (antibody, part only; not given: Variable domains, not shown: another chain or arm of the molecule)
constant: B1 constant with R138Y, Q197W, L200K
B7: feline IgG1a mutant ID No. 287: S252Y, S428Y, D312P, L314K, S434Y (antibody, part only; not given: Variable domains, not shown: another chain or arm of the molecule)
constant: B1 constant with R138Y, D198P, L200K, S316Y
B8: feline IgG1a mutant ID No. 288: S252Y, S428Y, D312P, S434Y (antibody, part only; not given: Variable domains, not shown: another chain or arm of the molecule)
constant: B1 constant with R138Y, D198P, S316Y
B9: feline IgG1a mutant ID No. 289: S252Y, S428Y, L314K, S434Y (antibody, part only; not given: Variable domains, not shown: another chain or arm of the molecule)
constant: B1 constant with R138Y, L200K, S316Y
B10: feline IgG1a mutant ID No. 290: S252Y, S428Y, Q311W, D312P (antibody, part only; not given: Variable domains, not shown: another chain or arm of the molecule; small tags and cut ends)
constant: B1 constant with R138Y, Q197W, D198P, S316Y, Y322S
B11: feline IgG1a mutant ID No. 291: S252Y, S428Y, Q311W, D312P, L314K (antibody, part only; not given: Variable domains, not shown: another chain or arm of the molecule; small tags and cut ends)
constant: B1 constant with R138Y, Q197W, D198P, L200K, S316Y, Y322S
B12: feline IgG1a mutant ID No. 292: S252Y, S428Y, Q311W, D312P, L314K, S434Y (antibody, part only; not given: variable domains and light chain, not shown: another chain or arm of the molecule; small tags and cut ends)
constant: B1 constant with R138Y, Q197W, D198P, L200K, S316Y
B13: feline IgG1a mutant ID No. 293: S252Y, S428Y, Q311W, D312P, S434Y (antibody, part only; not given: Variable domains, not shown: another chain or arm of the molecule; small tags and cut ends)
constant: B1 constant with R138Y, Q197W, D198P, S316Y
B14: feline IgG1a mutant ID No. 294: S252Y, S428Y, Q311W, L314K (antibody, part only; not given: variable domains and light chain, not shown: another chain or arm of the molecule; small tags and cut ends)
constant: B1 constant with R138Y, Q197W, L200K, S316Y, Y322S
B15: feline IgG1a mutant ID No. 295: S252Y, S428Y, Q311W, L314K, S434Y (antibody, part only; not given: Variable domains, not shown: another chain or arm of the molecule; small tags and cut ends)
constant: B1 constant with R138Y, Q197W, L200K, S316Y
B16: feline IgG1a mutant ID No. 296: S252Y, S428Y, Q311W, S434Y (antibody, part only; not given: Variable domains, not shown: another chain or arm of the molecule; small tags and cut ends)
constant: B1 constant with R138Y, Q197W, S316Y
B17: feline IgG1a mutant ID No. 297: S428Y, D312P, L314K, S434Y (antibody, part only; not given: Variable domains, not shown: another chain or arm of the molecule)
constant: B1 constant with R138S, D198P, L200K, S316Y
B18: feline IgG1a mutant ID No. 299: S428Y, Q311W, D312P, L314K, S434Y (antibody, part only; not given: variable domains and light chain, not shown: another chain or arm of the molecule)
constant: B1 constant with R138S, Q197W, D198P, L200K, S316Y
B19: feline IgG1a mutant ID No. 300: S428Y, Q311W, D312P, S434Y (antibody, part only; not given: Variable domains, not shown: another chain or arm of the molecule)
constant: B1 constant with R138S, Q197W, D198P, S316Y
B20: feline IgG1a mutant ID No. 301: S428Y, Q311W, L314K, S434Y (antibody, part only; not given: Variable domains, not shown: another chain or arm of the molecule)
constant: B1 constant with R138S, Q197W, L200K, S316Y
B21: feline IgG1a mutant ID No. 303: A431K, S434Y (antibody, part only; not given: variable domains and light chain, not shown: another chain or arm of the molecule)
constant: B1 constant with R138S, A319K
B22: feline IgG1a mutant ID No. 308: P247V, S252H (antibody, part only; not given: Variable domains, not shown: another chain or arm of the molecule; small tags and cut ends)
constant: B1 constant with P133V, R138H, Y322S
B23: feline IgG1a mutant ID No. 310: P247V, T250Q, S252H (antibody, part only; not given: variable domains and light chain, not shown: another chain or arm of the molecule; small tags and cut ends)
constant: B1 constant with P133V, T136Q, R138H, Y322S
B24: feline IgG1a mutant ID No. 316: S428M, A431K (antibody, part only; not given: Variable domains, not shown: another chain or arm of the molecule)
constant: B1 constant with R138S, S316M, A319K, Y322S
B25: feline IgG1a mutant ID No. 317: S428M, A431K, S434P (antibody, part only; not given: variable domains and light chain, not shown: another chain or arm of the molecule)
constant: B1 constant with R138S, S316M, A319K, Y322P
B26: feline IgG1a mutant ID No. 318: S428M, A431K, S434Y (antibody, part only; not given: Variable domains, not shown: another chain or arm of the molecule)
constant: B1 constant with R138S, S316M, A319K
B27: feline IgG1a mutant ID No. 319: S428Y, D312P, A431K, S434P (antibody, part only; not given: variable domains, not shown: another chain or arm of the molecule)
constant: B1 constant with R138S, D198P, S316Y, A319K, Y322P
B28: feline IgG1a mutant ID No. 321: S428Y, D312P, S434Y, A431K (antibody, part only; not given: Variable domains, not shown: another chain or arm of the molecule)
constant: B1 constant with R138S, D198P, S316Y, A319K
B29: feline IgG1a mutant ID No. 324: S428Y, D312P, S434Y, D399M, T403R (antibody, part only; not given: Variable domains, not shown: another chain or arm of the molecule)
constant: B1 constant with R138S, D198P, D287M, T291R, S316Y
B30: feline IgG1a mutant ID No. 325: S428Y, D312P, S434Y, D401R, T403R (antibody, part only; not given: Variable domains, not shown: another chain or arm of the molecule)
constant: B1 constant with R138S, D198P, D289R, T291R, S316Y
B31: feline IgG1a mutant ID No. 326: S428Y, D312P, S434Y, P247V, S252H (antibody, part only; not given: Variable domains, not shown: another chain or arm of the molecule; small tags and cut ends)
constant: B1 constant with P133V, R138H, D198P, S316Y
B32: feline IgG1a mutant ID No. 327: S428Y, D312P, S434Y, P247V, T250Q (antibody, part only; not given: Variable domains, not shown: another chain or arm of the molecule; small tags and cut ends)
constant: B1 constant with P133V, T136Q, R138S, D198P, S316Y
B33: feline IgG1a mutant ID No. 328: S428Y, D312P, S434Y, P247V, T250Q, S252H (antibody, part only; not given: Variable domains, not shown: another chain or arm of the molecule; small tags and cut ends)
constant: B1 constant with P133V, T136Q, R138H, D198P, S316Y
B34: feline IgG1a mutant ID No. 329: S428Y, D312P, S434Y, Q311H, L314K (antibody, part only; not given: Variable domains, not shown: another chain or arm of the molecule; small tags and cut ends)
constant: B1 constant with R138S, Q197H, D198P, L200K, S316Y
B35: feline IgG1a mutant ID No. 331: S428Y, D312P, S434Y, Q311M, L314K (antibody, part only; not given: Variable domains, not shown: another chain or arm of the molecule; small tags and cut ends)
constant: B1 constant with R138S, Q197M, D198P, L200K, S316Y
B36: feline IgG1a mutant ID No. 332: S428Y, D312P, S434Y, Q311R, L314K (antibody, part only; not given: Variable domains, not shown: another chain or arm of the molecule; small tags and cut ends)
constant: B1 constant with R138S, Q197R, D198P, L200K, S316Y
B37: feline IgG1a mutant ID No. 333: S428Y, D312P, S434Y, Q311Y, L314K (antibody, part only; not given: Variable domains, not shown: another chain or arm of the molecule; small tags and cut ends)
constant: B1 constant with R138S, Q197Y, D198P, L200K, S316Y
B38: feline IgG1a mutant ID No. 334: S428Y, D312P, S434Y, T250Q, S252H (antibody, part only; not given: Variable domains, not shown: another chain or arm of the molecule)
constant: B1 constant with T136Q, R138H, D198P, S316Y

Legend:
[1] = biological target: feline FcRn complex (FcRn-α subunit and β-microglobulin) (feline); test: SPR (Biacore), FcRn on SA chip, pH 6
[2] = biological target: feline FcRn complex (FcRn-α subunit and β-microglobulin) (feline); test: SPR (Biacore), FcRn on SA chip, pH 7.4

| Binder | Kd [1] [nM] | Kd [2] [nM] |
| --- | --- | --- |
| B1 | 10.8 | 12100 |
| B2 | 2.87 | 4400 |
| B3 | 2.35 | 1590 |
| B4 | 30 | 119 |
| B5 | 1.14 | 300 |
| B6 | 1.21 | 1730 |
| B7 | 0.633 | 127 |
| B8 | 0.0268 | 3.22 |
| B9 | 0.808 | 132 |
| B10 | 3.08 | 254 |
| B11 | 39.7 | 16700 |
| B12 | 4.01 | 2720 |
| B13 | 1.07 | 2930 |
| B14 | 0.692 | 12.8 |
| B15 | 0.675 | 201 |
| B16 | 0.544 | 1480 |
| B17 | 0.898 | 82.9 |
| B18 | 1.17 | 79.6 |
| B19 | 0.235 | 182 |

| Binder | Kd [1] [nM] | Kd [2] [nM] |
| --- | --- | --- |
| B20 | 1.11 | 494 |
| B21 | 1.33 | 26.3 |
| B22 | 5.61 | 17.9 |
| B23 | 8.21 | 24.4 |
| B24 | 4.87 | 2420 |
| B25 | 22.2 | 15.6 |
| B26 | 0.135 | 25.3 |
| B27 | 6.96 | 1080 |
| B28 | 0.0539 | 10.2 |
| B29 | 0.113 | 21.6 |
| B30 | 0.0072 | 11.1 |
| B31 | 0.0627 | 13.7 |
| B32 | 0.221 | 27.4 |
| B33 | 0.0418 | 8.68 |
| B34 | 0.338 | 18.9 |
| B35 | 0.259 | 14.6 |
| B36 | 0.332 | 28.6 |
| B37 | 0.908 | 25.9 |
| B38 | 0.182 | 19.9 |
